From article PMC5224480 (Nucleic Acids Research, 2016) come the findings set out here.

For this assay, the target named is T1, β subunit of Thermotoga maritima RNA polymerase (tmβ) (Thermotoga maritima, UniProt P29398 1-1263).
T1 sequence (looked up): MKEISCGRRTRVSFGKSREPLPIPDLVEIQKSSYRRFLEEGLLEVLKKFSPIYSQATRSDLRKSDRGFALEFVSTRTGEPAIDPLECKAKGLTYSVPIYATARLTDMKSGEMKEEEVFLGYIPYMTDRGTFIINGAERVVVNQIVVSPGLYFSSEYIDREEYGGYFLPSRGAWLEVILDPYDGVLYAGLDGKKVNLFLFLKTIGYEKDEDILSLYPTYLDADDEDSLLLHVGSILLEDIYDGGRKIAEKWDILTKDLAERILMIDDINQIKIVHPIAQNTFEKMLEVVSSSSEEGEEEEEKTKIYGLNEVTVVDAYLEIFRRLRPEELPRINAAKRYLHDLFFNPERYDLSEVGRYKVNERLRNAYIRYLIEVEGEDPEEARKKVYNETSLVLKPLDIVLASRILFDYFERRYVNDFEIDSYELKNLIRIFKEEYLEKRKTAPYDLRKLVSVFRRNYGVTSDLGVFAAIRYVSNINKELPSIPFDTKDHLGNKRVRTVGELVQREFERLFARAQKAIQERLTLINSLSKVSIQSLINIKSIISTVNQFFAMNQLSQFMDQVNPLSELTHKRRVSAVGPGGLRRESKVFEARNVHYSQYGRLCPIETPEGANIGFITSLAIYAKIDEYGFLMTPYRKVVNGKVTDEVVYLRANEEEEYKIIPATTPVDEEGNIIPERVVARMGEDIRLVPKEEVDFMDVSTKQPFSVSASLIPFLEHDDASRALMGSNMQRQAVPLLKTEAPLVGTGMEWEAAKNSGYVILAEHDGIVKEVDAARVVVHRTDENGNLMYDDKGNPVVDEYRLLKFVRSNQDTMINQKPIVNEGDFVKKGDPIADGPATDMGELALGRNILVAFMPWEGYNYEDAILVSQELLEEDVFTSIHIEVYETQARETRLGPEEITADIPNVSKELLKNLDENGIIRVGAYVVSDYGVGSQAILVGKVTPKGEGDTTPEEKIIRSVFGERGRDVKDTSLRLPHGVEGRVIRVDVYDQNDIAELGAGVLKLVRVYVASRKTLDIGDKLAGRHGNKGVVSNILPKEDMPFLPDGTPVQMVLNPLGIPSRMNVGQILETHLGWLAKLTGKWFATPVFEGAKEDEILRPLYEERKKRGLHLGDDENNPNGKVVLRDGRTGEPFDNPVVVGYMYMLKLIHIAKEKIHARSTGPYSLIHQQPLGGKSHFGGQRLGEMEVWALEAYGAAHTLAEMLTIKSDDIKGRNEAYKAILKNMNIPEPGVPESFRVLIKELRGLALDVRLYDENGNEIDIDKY
The assay can be described thus: NMR titration.

B1: tmNusG-DII (residues 42-233 of tmNusG) (domain or fragment, Thermotoga maritima, UniProt P29397 42-233, looked up)
chain: EEVVLDATSPSERLILSPKAKLHVNNGKDVNKGDLIAEEPPIYARRSGVIVDVKNVRKIVVETIDRKYTKTYYIPESAGIEPGLRVGTKVKQGLPLSKNEEYICELDGKIVEIERMKKVVVQTPDGEQDVYYIPLDVFDRDRIKKGKEVKQGEMLAEARKFFAKVSGRVEVVDYSTRKEIRIYKTKRRKLFP
B1: the binding result was “binds”.
